Laboratory results published in publication doi:10.1101/2025.11.20.689565, “Phosphorylation remodels the mitotic centrosome matrix to generate bipartite γ-tubulin complex docking sites” (bioRxiv, 2025).

Experiments:
[1] = molecular target: the molecule itself; assay: SEC-MALS; Superose 6 increase 10/300 or Superdex 200 increase 10/300 in 20 mM Tris-HCl pH 7.5, 50 mM NaCl, 5 mM EGTA, 2 mM MgCl2, 1 mM DTT; 120 μL of ~2.0 mg/ml protein loaded; with or without PLK1 phosphorylation
[2] = molecular target: T1, untagged SPD-5 aa 101-473, not phosphorylated (C. elegans, UniProt P91349 101-473); assay: pull-down; MBP pull-down: purified SPD-5 fragments mixed at 2.0 μM with or without 500 nM PLK1(T194D) in kinase buffer 1 h at 23°C; then 75 nM each with 2 μg anti-MBP antibody in lysis buffer 2 h at 4°C and protein A beads 1 h at 4°C; five washes; immunoblot or Coomassie; conditions: both partners purified
T1 construct: source: E. coli BL21(DE3) pLysS, purified (glutathione agarose, cleaved off GST)
T1 sequence (looked up): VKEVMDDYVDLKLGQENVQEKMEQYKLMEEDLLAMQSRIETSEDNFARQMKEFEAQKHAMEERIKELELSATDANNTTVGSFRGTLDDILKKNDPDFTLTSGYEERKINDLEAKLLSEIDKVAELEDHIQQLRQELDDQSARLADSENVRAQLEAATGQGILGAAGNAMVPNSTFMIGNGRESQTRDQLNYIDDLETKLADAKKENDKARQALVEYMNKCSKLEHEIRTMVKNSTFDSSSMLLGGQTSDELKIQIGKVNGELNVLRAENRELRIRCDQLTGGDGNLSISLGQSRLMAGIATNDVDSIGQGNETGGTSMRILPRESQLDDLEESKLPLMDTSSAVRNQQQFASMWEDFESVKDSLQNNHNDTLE

B1: untagged SPD-5 aa 1-473, not phosphorylated (domain or fragment, C. elegans, UniProt P91349 1-473, looked up)
chain: MEDNSVLNEDSNLEHVEGQPRRSMSQPVLNVEGDKRTSSTSATQQQVLSGAFSSADVRSIPIIQTWEENKALKTKITILRGELQMYQRRYSEAKEASQKRVKEVMDDYVDLKLGQENVQEKMEQYKLMEEDLLAMQSRIETSEDNFARQMKEFEAQKHAMEERIKELELSATDANNTTVGSFRGTLDDILKKNDPDFTLTSGYEERKINDLEAKLLSEIDKVAELEDHIQQLRQELDDQSARLADSENVRAQLEAATGQGILGAAGNAMVPNSTFMIGNGRESQTRDQLNYIDDLETKLADAKKENDKARQALVEYMNKCSKLEHEIRTMVKNSTFDSSSMLLGGQTSDELKIQIGKVNGELNVLRAENRELRIRCDQLTGGDGNLSISLGQSRLMAGIATNDVDSIGQGNETGGTSMRILPRESQLDDLEESKLPLMDTSSAVRNQQQFASMWEDFESVKDSLQNNHNDTLE
notes: also called SPD-5 N-terminus; source: E. coli BL21(DE3) pLysS, purified (glutathione agarose, cleaved off GST)
Question: B1 was tested. Which “stoichiometry N” value [1] did it give?
Answer: Its value is 2.

B2: MBP-6His-HA (M6HH)-tagged SPD-5 aa 1-473, not phosphorylated (domain or fragment, C. elegans, UniProt P91349 1-473, looked up)
chain: MEDNSVLNEDSNLEHVEGQPRRSMSQPVLNVEGDKRTSSTSATQQQVLSGAFSSADVRSIPIIQTWEENKALKTKITILRGELQMYQRRYSEAKEASQKRVKEVMDDYVDLKLGQENVQEKMEQYKLMEEDLLAMQSRIETSEDNFARQMKEFEAQKHAMEERIKELELSATDANNTTVGSFRGTLDDILKKNDPDFTLTSGYEERKINDLEAKLLSEIDKVAELEDHIQQLRQELDDQSARLADSENVRAQLEAATGQGILGAAGNAMVPNSTFMIGNGRESQTRDQLNYIDDLETKLADAKKENDKARQALVEYMNKCSKLEHEIRTMVKNSTFDSSSMLLGGQTSDELKIQIGKVNGELNVLRAENRELRIRCDQLTGGDGNLSISLGQSRLMAGIATNDVDSIGQGNETGGTSMRILPRESQLDDLEESKLPLMDTSSAVRNQQQFASMWEDFESVKDSLQNNHNDTLE
notes: source: E. coli BL21(DE3) pLysS, purified (Ni-NTA)
Question: B2 was tested. Which “stoichiometry N” value [1] did it give?
Answer: Its value is 2.

B3: MBP-6His-HA (M6HH)-tagged SPD-5 aa 1-345, not phosphorylated (domain or fragment, C. elegans, UniProt P91349 1-345, looked up)
chain: MEDNSVLNEDSNLEHVEGQPRRSMSQPVLNVEGDKRTSSTSATQQQVLSGAFSSADVRSIPIIQTWEENKALKTKITILRGELQMYQRRYSEAKEASQKRVKEVMDDYVDLKLGQENVQEKMEQYKLMEEDLLAMQSRIETSEDNFARQMKEFEAQKHAMEERIKELELSATDANNTTVGSFRGTLDDILKKNDPDFTLTSGYEERKINDLEAKLLSEIDKVAELEDHIQQLRQELDDQSARLADSENVRAQLEAATGQGILGAAGNAMVPNSTFMIGNGRESQTRDQLNYIDDLETKLADAKKENDKARQALVEYMNKCSKLEHEIRTMVKNSTFDSSSMLLGG
notes: as for B2
Question: Which “stoichiometry N” value [1] does the source give for B3 here?
Answer: Its value is 2.

B4: untagged SPD-5 aa 1-473, PLK1-phosphorylated (domain or fragment, C. elegans, UniProt P91349 1-473, looked up)
chain: MEDNSVLNEDSNLEHVEGQPRRSMSQPVLNVEGDKRTSSTSATQQQVLSGAFSSADVRSIPIIQTWEENKALKTKITILRGELQMYQRRYSEAKEASQKRVKEVMDDYVDLKLGQENVQEKMEQYKLMEEDLLAMQSRIETSEDNFARQMKEFEAQKHAMEERIKELELSATDANNTTVGSFRGTLDDILKKNDPDFTLTSGYEERKINDLEAKLLSEIDKVAELEDHIQQLRQELDDQSARLADSENVRAQLEAATGQGILGAAGNAMVPNSTFMIGNGRESQTRDQLNYIDDLETKLADAKKENDKARQALVEYMNKCSKLEHEIRTMVKNSTFDSSSMLLGGQTSDELKIQIGKVNGELNVLRAENRELRIRCDQLTGGDGNLSISLGQSRLMAGIATNDVDSIGQGNETGGTSMRILPRESQLDDLEESKLPLMDTSSAVRNQQQFASMWEDFESVKDSLQNNHNDTLE
modifications: phosphorylated in vitro by PLK1(T194D); sites not all mapped (predicted PLK1 sites S5, S11, S170, T178, T198, T274, T335, S339, S340)
notes: source: E. coli BL21(DE3) pLysS, purified (glutathione agarose, cleaved off GST); incubated with PLK1-6His and ATP
Question: B4 was tested. Which “stoichiometry N” value [1] did it give?
Answer: The value was 2.

B5: MBP-6His-HA (M6HH)-tagged SPD-5 aa 1-101, not phosphorylated (domain or fragment, C. elegans, UniProt P91349 1-101, looked up)
chain: MEDNSVLNEDSNLEHVEGQPRRSMSQPVLNVEGDKRTSSTSATQQQVLSGAFSSADVRSIPIIQTWEENKALKTKITILRGELQMYQRRYSEAKEASQKRV
notes: also called PRGB1; source: E. coli BL21(DE3) pLysS, purified (Ni-NTA)
Question: Does B5 bind [2]?
Answer: Result: binds
